Numbering of substitutions follows the chain as printed.
B1: 11E8Mut94 scFv (scFv, V domains shown, part only)
VH: EVQLQQSGPELMKTGASVKISCKATGYTFSSYWIEWVKQRPGHGLEWIGDILPGSGTTNYNEKFEGRAAITADTSSNTSYMQLSSLTSEDSAVYYCARWGWDSYWGQGTLVTVSS
VL: DIKMTQTPSSLSASLGDRVTISCSASQGISNYLNWYQQKPDGTVKLLIYYTSSLHSGVPSRFSGSGSGTDYSLTISNLEPEDIATYYCQQYSNLPYTFGGGTKLEIKR
modifications: linker not given; order not stated
B2: 11E8Mut39 scFv (scFv, V domains shown, part only)
VH: EVQLQQSGPELMKTGASVKISCKATGYTFSTYWIEWVKQRPGHGLEWIGHTLPGSGTTNYNEKFKGRATITADRPSNTSYMQLSSLTYGDSAVFYCATWGWDTYWDHGTSVTVSS
VL: DIEMTQSPSSLSASLGDRVTISCSTSQDVSSYLNWYQQKPDGTVTLLIYYASNLHSGVPSRFSGSGSGTDYSLAISNLEPEDIATYYCQQYSNLPYTFGGGTKLEIKA
modifications: linker not given; order not stated
B3: 14E5Mut54 scFv (scFv, V domains shown, part only)
VH: B1 VH with P9A, T14P, S31T, Y32N, V37I, D50H, G56V, T57I, E65K, R67K
VL: B1 VL with K3V, S22R
modifications: linker not given; order not stated
B4: 14E5Mut68 scFv (scFv, V domains shown, part only)
VH: B1 VH with P9A, T14P, S31T, V37I, E65K, A69T, I70V, T74R, S79A
VL: B1 VL with T7S, N93E
modifications: linker not given; order not stated
B5: 4F1 scFv (scFv, V domains shown)
VH: QVQLQQSGAELVRPGTSVKVSCKASGYAFTNYLIEWVKQRPGQGLEWIGVINPGTGGTNYNKKFKVKATLTADKSSSTAYMQLGGLTFDDSAVYFCAREGNARTYYYAMDYWGQGTSVTVSS
VL: DIEMTQTPASLSASVGETVTITCRASENIYSYLVWYQQKQGKSPQVLVYNAKTLAEGVPSRFSGSGSGTQFSLKINSLQPEDFGSYYCQHHNGTPYTFGGGTKLEIK
B6: 6B9 scFv (scFv, V domains shown)
VH: QVQLQQSGAELVRPGTSVKVSCKASGYAFTDYLIEWVKQRPGQGLEWIGVINPETGGTNYNAKFKGKATLTADKSSSSAYMQLSSLTSGDSAVYFCAREAGNYIYAMDYWGQGTSVTVSS
VL: B5 VL with E3Q, T7S, E27V, V46L, Y49H, N92H
B7: 6B9Mut1 scFv (scFv, V domains shown)
VH: B6 VH with K65R
VL: B5 VL with E3V, T7S, E27V, V46L, Y49H, N92H
B8: 11E8 scFv (scFv, V domains shown)
VH: B2 VH with T31S, H50D, T51I, I70V, P75S, S79A, F94Y, H107Q
VL: DIVMTQSPSSLSASLGDRVTISCSASQGISNYLNWYQQKPDGTVKLLIYYTSSLHSGVPSRFSGSGSGTDYSLTISNLEPEDIATYYCQQYSNLPYTFGGGTKLEIK
B9: 11E8Mut28 scFv (scFv, V domains shown)
VH: B1 VH with E65K, R67K, M81L
VL: B8 VL with Y91F
B10: 14E5 scFv (scFv, V domains shown)
VH: B1 VH with P9A, T14P, S31T, V37I, D50H, G56V, T57I, E65K, R67K
VL: B8 VL with V3E, A25T, G28D, N31S, Y32S, K45T, S53N, N93K
B11: 14E5Mut11 scFv (scFv, V domains shown)
VH: B1 VH with P9A, T14P, S31T, Y32N, V37I, D50H, G56V, T57I, E65K, R67K
VL: B8 VL with V3L, N31K
B12: 14E5Mut42 scFv (scFv, V domains shown)
VH: B1 VH with Q3P, P9A, T14P, S31T, V37I, D50H, G56V, T57I, E65K, R67K
VL: B8 VL with S7T, N93D
B13: 14E5Mut83 scFv (scFv, V domains shown)
VH: EVQLQQSGAVLMKPGASVKISCKATGYTFSTHWIEWIKQRPGHGLEWIGHILPGSVITNYNEKFKGKAAITADTSSNTSYMQLSSLTSEDSAVYYCARWGWDSYWGQGTLVTVSS
VL: B8 VL with V3L, N93D
B14: 14E5Mut95 scFv (scFv, V domains shown)
VH: B13 VH with S7T, V10E, H32Y, A69V
VL: B8 VL with V3E, N93D
B15: 14E5Mut65 scFv (scFv, V domains shown)
VH: B13 VH with E1Q, V10E, T28S, H32N, E89D
VL: B8 VL with V3K, Y91F

What was measured:
[1] = target: integrin αβ8 (αvβ8), form in the assay not stated (UniProt P06756); test: affinity determination of scFv; method and antigen form not stated
[2] = target: integrin αβ8 (αvβ8), form in the assay not stated (UniProt P06756 31-992); test: as above
Sequence of integrin αβ8 (αvβ8), form in the assay not stated (UniProt P06756 31-992) (chain, as listed by the source, chain 1 of 2): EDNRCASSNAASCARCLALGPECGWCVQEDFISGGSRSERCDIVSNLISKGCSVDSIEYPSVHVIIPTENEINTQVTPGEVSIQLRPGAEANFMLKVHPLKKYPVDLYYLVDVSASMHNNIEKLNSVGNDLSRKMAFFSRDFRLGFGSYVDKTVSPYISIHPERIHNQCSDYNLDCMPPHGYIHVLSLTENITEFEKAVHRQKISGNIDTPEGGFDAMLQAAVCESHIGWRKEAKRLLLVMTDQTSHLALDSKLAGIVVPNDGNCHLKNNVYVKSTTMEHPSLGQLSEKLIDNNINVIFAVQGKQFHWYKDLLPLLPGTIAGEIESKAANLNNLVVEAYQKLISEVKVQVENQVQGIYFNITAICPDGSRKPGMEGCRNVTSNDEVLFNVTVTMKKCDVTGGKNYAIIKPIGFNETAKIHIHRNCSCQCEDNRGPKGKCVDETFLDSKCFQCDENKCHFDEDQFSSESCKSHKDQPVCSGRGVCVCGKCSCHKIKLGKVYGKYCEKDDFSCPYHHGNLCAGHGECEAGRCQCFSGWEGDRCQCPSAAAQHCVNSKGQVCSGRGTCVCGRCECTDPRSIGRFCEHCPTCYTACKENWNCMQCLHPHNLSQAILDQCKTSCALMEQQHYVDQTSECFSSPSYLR
Sequence of integrin αβ8 (αvβ8), form in the assay not stated (UniProt P06756 31-992) (P06756 31-992, chain 2 of 2): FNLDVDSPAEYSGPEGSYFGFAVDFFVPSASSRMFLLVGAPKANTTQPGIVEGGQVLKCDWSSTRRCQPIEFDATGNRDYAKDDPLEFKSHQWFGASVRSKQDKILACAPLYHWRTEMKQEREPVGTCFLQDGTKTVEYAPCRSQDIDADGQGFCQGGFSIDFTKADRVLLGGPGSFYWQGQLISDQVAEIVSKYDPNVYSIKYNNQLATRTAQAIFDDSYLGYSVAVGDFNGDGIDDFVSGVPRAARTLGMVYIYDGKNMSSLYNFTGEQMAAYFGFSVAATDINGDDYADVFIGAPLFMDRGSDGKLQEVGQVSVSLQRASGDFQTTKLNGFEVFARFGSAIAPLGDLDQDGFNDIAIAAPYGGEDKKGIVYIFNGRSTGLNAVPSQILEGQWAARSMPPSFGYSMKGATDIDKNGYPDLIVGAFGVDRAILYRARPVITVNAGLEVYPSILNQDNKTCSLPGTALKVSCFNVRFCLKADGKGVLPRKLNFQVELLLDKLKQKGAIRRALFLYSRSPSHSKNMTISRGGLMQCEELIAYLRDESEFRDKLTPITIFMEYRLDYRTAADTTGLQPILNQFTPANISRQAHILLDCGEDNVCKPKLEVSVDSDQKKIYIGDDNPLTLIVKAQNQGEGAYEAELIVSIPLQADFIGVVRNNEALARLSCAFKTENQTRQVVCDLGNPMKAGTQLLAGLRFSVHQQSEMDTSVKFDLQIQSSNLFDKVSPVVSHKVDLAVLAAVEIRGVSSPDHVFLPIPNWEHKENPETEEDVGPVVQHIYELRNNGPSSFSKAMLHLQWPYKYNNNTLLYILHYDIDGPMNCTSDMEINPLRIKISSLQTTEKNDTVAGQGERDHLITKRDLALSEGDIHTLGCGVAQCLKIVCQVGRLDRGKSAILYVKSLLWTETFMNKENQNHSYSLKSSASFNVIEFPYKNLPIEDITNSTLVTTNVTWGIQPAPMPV

Sequence of integrin αβ8 (αvβ8), form in the assay not stated (UniProt P06756) (chain, as listed by the source, chain 1 of 2): as the sequence (chain, as listed by the source, chain 1 of 2) above
Sequence of integrin αβ8 (αvβ8), form in the assay not stated (UniProt P06756) (P06756 31-992, chain 2 of 2): as the sequence (P06756 31-992, chain 2 of 2) above

Binder | Kd [1] [nM] | Kd [2] [nM]
B1 | 3.2 | 
B2 | 21.1 | 
B3 | 2.09 | 
B4 | 1.42 | 
B5 |  | > 100
B6 |  | 14.8
B7 |  | 9.34
B8 |  | > 250
B9 |  | 3.52
B10 |  | 14
B11 |  | 3.85
B12 |  | 3.35
B13 |  | 1.79
B14 |  | 1.83
B15 |  | 3.04
